Measurements as given in the DeepSol protein solubility set.

experiment: soluble on expression in E. coli; label from the status in PepcDB or PDB records

Sequence	soluble on expression in E. coli
MSLDQTVSNNFKMIYIASCGEGINAFHLVESTLVQFPDSDITVVKVPHIRTESQVDHLLDRVKDVESLIAHTIVEPNLRQYLVTKAEEHKIVTIDLMGQVLNKIETFLSIRPLGKPGLYRETHQVDLKQVTAIDFALAHDDGLRPESLDEAEIILVGLSRAGKTPLSMYMGVMGWKVANIPYVPGVPMPQTLDEVDRRRVIALNINIEQLLSHRKMRQESLGTSDMHAYSRRQEVEVEVQTAQKYYITKGFSMIDVSNKPIETSAEEIAEMITRRFKAQAHLKDEGHHHHHH	soluble
MGSDKIHHHHHHMTNPTLAPQSDEYQQIHNGIVQLLDTARTQTVRSINTIMTATYWEMGRRIVEFEQGGEARAAYGEQLIDRLSQDLSQRYKRGFSASNLWQFKKFYLYFQKIEILQTVSGESLHLAQLAKSFPLPWSAYVRLLSVKNPNARTFYEKETLRNGWSVRQLDRQIATQFYERTLLSHDKSAMLQQPAPAEPNVLPEQAIRDPFILEFLNLKDEYSESDLEDALLSHLMDFMLELGDDFAFVGRQRRLRIDDSWFRVDLLFFHRRLRCLLLVDLKVGKFGYADAGQMNMYLNYAKEHWTMPGENPPVGLVLCAGKGAGEAHYALTGLPNTIMASEYKVQLPDEKLLTDELIRSQTMLETQLTRGGSLTTEKN	not soluble
GMPTRVIEDKGDMTPSFGIDDRIFLGEGLFETIRVNSSKPSFAYMHWERLGNSARQLGIPFEISFDDWFEHLIQKIQKDNLYHGGIKAILSGGPASRGLAERGQVSQLIFQTFNYSIQKHPVRLISINWLRDKANPLYQLKSVNYLEAIIAQRQAIAVGADDALFFNTENHVTETTCANLFLIENNILYTPRVEDGILPGITRARLISHCQQHKMSVQEISLTKKRIEDADAVFLTNSLQGIRRVLSLDNIIFEVNHPIIDKLIFLLNQDES	soluble
MSLAVLPDVPKSKDMKHRPRFLPSIGPMKKRVAFFSGCLMDTMFLPTNNATLKLLQLAGCDIVIPPEQACCGALHGHSGEKNTGKELAKQNIAAFEALDVDAVITNAGGCGAFLTEYDHLLKDDPEWSERAAAFVQKLKDFSSVLVELDFHQMDLALETPQVVTYQDSCHLRNVMHTSLEPRQLLKSIKGAEFKEMEKADSCCGSAGIYNIVEVEMSMKILDSKMAAVKATEAILIVTANPGCLLQMKLGIEREGLSGKVRAVHLADLLLEAAGHKTSEGHHHHHH	soluble
MMRWIRHMFAPSAHRSFPPRSMDSIAAAIAASEQLHTGQVMVAVEADLSAAALWRGHGARQRAEQAFAQLRTWDTEANNGVLIYLLLADHAIEVVADRGLRALVPDAAWAEVCRRMQQFLRDGQHEAAVLAGVEAVTELLCAHFPAAAQAQHEDELPNRPHILGLEHHHHHH	soluble
GQYKIQIFEKGDFSGQMYETTEDCPSIMEQFHMREIHSCKVLEGVWIFYELPNYRGRQYLLDKKEYRKPIDWGAASPAVQSFRRIVE	soluble
NNDITAENNNIYKAAKDVTTSLSKVLKNIN	soluble
MELTIMSQLIDRRQNAGKKSTVNRQRFLRRYKSQIKKAVSEAVGKRSITEIDQGEQITIPAKDIYEPQFHRGHGGHIERVLPGNDNFIAGDRIKRPGGGGAGGAGGNASDSGEGEDNFVFELSREEFLELYFEDLELPDLVKKELARISTYKTVRAGVTTSGIPNNINVLRSMKQATGRRVALASPYKKRLKEAEEELERLKQLANPDKIDLLKLERDIEFFKKKIQTVPFIDTIDLRYNHRVRVPSPSTQAVMFCVMDVSGSMDEAKKDIAKRFFILLYMFLTKNYEKIELVFIRHHTSAKEVNEEEFFYSRETGGTVVSSALELLNTIIEARYPPQAWNIYVAQASDGDNWNADSPYCQELLQEKIMPLLQYFAYIEIMPRHHQSLWEVYQQVKERYPNFAMENIDNVADIYPVFRELFKRKTVAAALEHHHHHH	not soluble
MDKTNLGELINQGKSLLDESVEGFNVGEYHKGAKDGLTVEINKAEEVFNKEDATEEEINLAKESLEGAIARFNSLLIEESTGDFNGNGKIDIGDLAMVSKNIGSTTNTSLDLNKDGSIDEYEISFINHRILNLEHHHHHH	soluble
GGGGGGMGSPYEYQPEVKWYHVLWDMRNKQFRQWYLKKKYRDMRIAYKYESHILYQKAGMGFLMAAVFMSIFSSDLAVAVFRWPTEDPNELLKSQVWQKYHNQLNERKEYADKLLQDSNYIHRKNNPGE	soluble
MGSDKIHHHHHHMKSKNLSPYIKYIELDRVRVPSFSRYPFHLPAVRNLDTLALHPKVTFLVGENGSGKSTILEAIAVAYGFNAEGGTKNFNFSSRRTHSDLSDYVKVVKGTRTPRNGFFLRAESFYNFASNLDDLDSEMAFGPSLIDSYGGRSLHEQSHGESFFAVFLNRFSGDGVYILDEPEAALSPSRQMSMLSRMHELVGEGAQFIIATHSPIIMAYPDALIYQIADDIEQVGYQETEHYRITRAFLNHPQKMLKLLLE	not soluble
MSLEKLNLICVDDQREVLSAVLQDLEPLNKWLNIEDCESADEVLELMDELDADGEMIALIISDHVMPGKTGVELLTEISKDSRFVRTRKVLLTGQATHTDTINAINSAGIDRYFEKPWQANQLIECVRNLVTQYIFDEGHHHHHH	not soluble
MVLKTVALVGNPNVGKTTIFNALTGLRQHVGNWPGVTVEKKEGIMEYREKEFLVVDLPGIYSLTAHSIDELIARNFILDGNADVIVDIVDSTCLMRNLFLTLELFEMEVKNIILVLNKFDLLKKKGAKIDIKKMRKELGVPVIPTNAKKGEGVEELKRMIALMAEGKVTTNPIIPRYDEDIEREIKHISELLRGTPLAEKYPIRWLALKLLQRDEEVIKLVLKYLGQEKMDEILKHISELEEKYKRPLDIVIASQKYEFLEQLLRKFVVHE	soluble
MLADPAQPEHVFIVEDSRGATELKLYKSHYTIGKADSCDIRLHSIYASRQHATLVRFLTENGEVRYRLIDGDPETSRRSANGTYVNNRSITECDLKHYDQILFGADVKATYFYLSPQFRSLEHHHHHH	not soluble
DNKINIGLAVMKILESWGADTIYGIPSGTLSSLMDAMGEEENNVKFLQVKHEEVGAMAAVMQSKFGGNLGVTVGSGGPGASHLINGLYDAAMDNIPVVAILGSRPQRELNMDAFQELNQNPMYDHIAVYNRRVAYAEQLPKLVDEAARMAIAKRGVAVLEVPGDFAKVEIDNDQWYSSANSLRKYAPIAPAAQDIDAAVELLNNSKRPVIYAGIGTMGHGPAVQELARKIKAPVITTGKNFETFEWDFEALTGSTYRVGWKPANETILEADTVLFAGSNFPFSEVEGTFRNVDNFIQIDIDPAMLGKRHHADVAILGDAALAIDEILNKVDAVEESAWWTANLKNIANWREYINMLETKEEGDLQFYQVYNAINNHADEDAIYSIDVGNSTQTSIRHLHMTPKNMWRTSPLFATMGIAIPGGLGAKNTYPDRQVWNIIGDGAFSMTYPDVVTNVRYNMPVINVVFSNTEYAFIKNKYEDTNKNLFGVDFTDVDYAKIAEAQGAKGFTVSRIEDMDRVMAEAVAANKAGHTVVIDCKITQDRPIPVETLKLDSKLYSEDEIKAYKERYEAANLVPFREYLEAEGLESKYIK	soluble
MGSDKIHHHHHHMDKRNSCYLCFGFQSRILARESALMDTQSLQAFLAVADHGSFSLAAEQLHLTQPAVSKRIAGLEGQVGAQLFDRLNRRVTLTEAGRTLLPRARQILVMFDDSRRALSNLSGDISGSLTMATSHHVGLHRLPPLLKAYTQAYPDVRMDMRFLDSEQAYQGVLDGDLELAVVTLAPVPDPALTVVPVWIDQLRFVCGREHALAGRDTVALSALSDYDAVLPGHLTFTRGIVVDTFARDGLQVNVSLSTNYLETLKMMVAIGLGWSVLPETMIDDEIEVIPIDHRPIQRPLGYLFHKSRTLSNAARAMLEMLDAARDTTARQWV	not soluble
MGCKISTEFCSDNPVGSISTSKVHPTDLSTPSYAIKPVEFYEEPLKDDQLFYKVALAKKEYREKEKDKKEQLSSNRRVSLQVEPNKLPIPLTRSSSLSSIMENRPPSGISNSSFIRSRNTASRRFTIDTSRAKSNQYVVSLCSKKIGIIEYPDGRSDKQPCDVYWHNVVLSDMNKIVTSPQSRVNKFPGMTELAKKISLTHSISSMQKLFPDEYAFYPNSWFLPAHLADFHAFYRKAQALGKTEMWFIVKPDEGAQGTGIYLINSPNQIRNVDQRQLVQEYVADPLLMNDKLKFDFRVYGVIKSINPLSIYVAREGMARFCTEKYEKPDSSNFKNLYAHLTNYSLNKANEAYVHSNTLQDQTRGSKRLLSTVFHQLESRGVKTKRLWHDIKLILVKTTLAMLPEIMLHYEHHFYDSTGPQCFQIMGFDVMIREDGTPILLEVNAAPSLTADHIVPHPGRTLLEGGQRVRSIVDEVIKIPLVRDTLLLVLGLMEEEYQNNSLKGETKSLDDMQTIKQRRKPHLSEIFPTRYGAHSGHLLFLDKAMYIYMQFVQLRSNVNITNAGLKQFVRKCNLIDIIPVVHVDAKVSEINYYFTGEKRTNGNGLPFHAFLMFLFFIAEKKFVLENDLLSKVQRLLSFCDMSLRRYGVRSARLRRAEVDSTIGNVEIYMLPSRMARNRSGTNGRKQNFTDDNNNPNSFAHLPKINERL	not soluble
MQLKRVAEAKLPTPWGDFLMVGFEELATGHDHLALIFGDISGDKPVLSRVHSECLTGDALFSLRCDCGFQLEVALTRIAEEGRGVLIYHRQEGRNIGLLNKIRAYALQDLGADTVEANHQLGFAADERDFTLCSDMYKLLGIKAVRLLTNNPKKVEILTQAGINIVERVPLIVGENPKNEHYLATKAAKMGHLLTK	not soluble
SEAVGVAPAPAGVPEKKLLEVKESRKAAPAAPSTSMAAKWAMKKKLVGGDAGYVLEDVPHLTDYLPELPTYPNPLQDNPAYSVVKQYFVNTDDTVTQKIVVHKTSARGTHFRRAGPRQRVYFQSDEVNAAIVTCGGLCPGLNTVIRELVCGLYDMYGVTSVVGIEGGYKGFYSRNTVALTPKSVNDIHKRGGTVLGTSRGGHDTGKIVDSIKDRGINQVYIIGGDGTQKGASVIYEEVRRRGLKCSVVGVPKTIDNDIAVIDKSFGFDTAVEEAQRAINAAHVEAESAENGIGVVKLMGRNSGFIAMYATLASRDVDCCLIPESPFYLEGKGGLLEFIEKRLKDNGHMVIVVAEGAGQDLIAKSMNFVDTQDASGNKLLLDVGLWLSQKIKDHFKKKRNFPITLKYIDPTYMIRAVRSNASDNVYCTLLAHSALHGAMAGYTGFTVAPVNGRHAYIPFYRITEKQNKVVITDRMWARVLCSTNQPCFLSHEDVEHLKHDDDEHHLHNTQLLEGESSPVKDSSKCNGTAAPV	soluble
MGSDKIHHHHHHMTIMILREIIDELSYQLKQRRIINVCVSPAYTSVMLDDQSIGISHTITDGEIEGAGEIIGKNAYDVVINNLDSNLQRSLSLAILNALGSMIDFTQGDPINLYSGGKLCVFGFSPQLSYSNFDSVIVYDFMSTENKKVGNTEIKPYSSLSREVCSTALIFASSIVNNTIDRIISQISANHLILTGISSVDAPITLKNHGFEVLGKLFPVEKYRVFRTICEGGSNKLLSKYIMRYFKKL	not soluble
MPKVGMPEIRKPQLVKATMSVIDRVGLHAASISLISKEAGVSTGIINHYFGGKHGLLEETMREILRQLSSTITGKLRALPADAHHQRINAIIDGNFVGYQAENKVAKTWLAFWSYSMHDEQLKRLQRVNERRLLSHLRRELKALLSAEQAELVAHGIASLIDGIWLRGTLNPQGIEADKARIIINDYLDKQLTFYSHKI	not soluble
GMRQGAGLGYRRDLAEGFLQLRNNDRIQFMEIAPENWIKMGGFARYQFDKVAEKIPILIHGLSLSLGGQAPLDKELLSSIKAMIKQYNTPFFSDHLSFCECDGHLYDLLPMPFTDEAVKHTAARIREVQDFLEIQISVENTSYYLHSETSTMNEVEFLNAIVQEANCGIHLDVNNIYVNAVNHGLLDPHVFIDNVDLKRVNYIHIAGHDDEHAATEVQIQTSESFNKIKGDLRHLPPLLVDTHGENVKGTVWDLLEYTYARLSHMPPTLLERDFNFPPFEKLCKEVDIIHQLQQKYVKKRGLSWLKI	soluble
